The series has as its system thebaine. As to the kind of experiment: Demethylation of thebaine by new cytochrome P450 fungal and plant homologs co-expressed with CPRs in S. cerevisiae. The note with it: 0.5 mM thebaine, SC or DELFT media pH 7, 72 h, 30° C.; co-expressed with Cel_CPR_co, Tp_CPR_5866, Tp_CPR_DN10898 or POR1.

B1: CYPDN4: cytochrome P450 homolog I1CCX6 from Rhizopus delemar, codon-optimized (protein)
chain: MVKSFLKAESPTDRYKRIIHPVASKGNGFYVSKVPFLWAVYVTNPVVAKQVLLKSDIFPKNHAVFHQIGKDSPFTQFLGLDNVALSNGDVWKKQRKVMNPAFHRSLPIKTMASVVNTLFSVIDNSDGPVLITSAMQNFTLDVLGLAIFGFEFKALQGDPDNWTKTYKTVIESLFDPVMNVFATFDTLLTWVYPKRRECSVAISKMNLKFDELAKQKRAEVKSGAYANVPDHDKDLLTLMLEAMEKGEALTSQDELRHNIAVFFLAGHGTTAHTLSFCFYHLAKNKHIQRKLREEIISVLGDEPVDIVPSLEQMKHMKYMNLVIKENLRMNTPADTLFTRDTVEDINLAGHIIPKDTAISIDINAIHHDPKYWHNPEHFIPERFAEGGEQESHEGLTWLPFSNGSRQCIGMNFSLAEQRLVLAMLVRKYEIDIPKDSIHYERILFDRPGNIAPLSLGLTFTKRY
modifications: Rhizopus delemar
For B1, the Northebaine production entry is on record as “−”.

B2: CYPDN31: cytochrome P450 homolog A0A291C3B2 from Absidia caerulea, codon-optimized (protein, listed as Absidia caerulea)
chain: MLTEYIHHFINNFDQKKTMDQLQTMVSSKEGMIGLATAAVLMSGAAVYKSTRIERGCPQVPNQSYFMGSTKEYRNNPAAFIEKWEKELGPVYGAYLFGQYTTVVSGPQVREVFLNDDFDFIAGIRRDFDTNLLSNGGDLRDLPVHKFAGSIKKNLSPKLPFYTSRVIEHLKIGLKEFCGVVPDEGKEFDHVYPLVQHMVAKASASVFVGPELAKNEQLIDSFKNMVLEVGSELAPKPYLEFFPNLMRLRMWFIGKTSQKVKRHRDQLRAALAPQVEYRLKAMKENDSNWDRPNDFLQDILESGDIPAHVDVTDHCCDWMTQIIFAALHTTSENGTLSFYRLLDNPKVLEDLLEEQNQVLEDAGYDSSVGPEVFTREILNKFVKMDSVIRETSRLRNDYIGLPHKNISSKTITLSGGAMIRPGERAYVNAYSNHRDGTIQKVTDNLKSFEPYRFVNQDRNSTKIGEDFIFFGMGKHACPGRWFAIQEIKTIIAMMIRSYQLSALGPVTFPTDDYSRIPMGRFKIVPRK
Consider B2, for which the Northebaine production result is “+”.

B3: CYPDN34: cytochrome P450 homolog A0A068SBP8 from Lichtheimia corymbifera, codon-optimized (protein, listed as Lichtheimia corymbifera)
chain: MYKAFLDNGIVSSIISTLDNKDISVFLNDPNHAKTRSVALVSFCTVIAAYALSRSRSHSKDKDTPMVPYTWPLIGSSREYRKDPEAFIKKWSSELGDVYKVHLFGRIQTVVSGKHVYCLQKDFDFQQGMSKTFDIWLLLDAPLGGRFTLDKIRHATIKFTRTKMLTNTPCVVKQLIAAEHEMIGDAQTPSEIANLYPLMEHLVAIASATNFVGPGLTKDKDLVETYKHLAVDVGSELGDGNEFLEAFPWISRLRMWYLGKYGNSVDKHRKRLLRAMKPIIDERLAAAENGIENPQDFIQDIIEESEITSGDPDKYILAVRWILVMIASAGHTTTENTTIILYRILQHPEVIDELLEEQRQVLEKHHGPDVKDNEDLATLFTGEVIKDLVKLDSVCRETMRLRSFYIDLPHTYVGKSPLALTNTCTIKPGEDVLLNMWLNHNRTAMQYDGLGDYNEFKPFRFVGLDRSSTKLGGDFLLFGLGTHACPGRWFAMHQTKTILSMLLRRYQITPQETIVFPIGNRSHVPSGKVTFQKRQ
For B3, the Northebaine production result was “+”.

B4: CYPDN6: cytochrome P450 homolog A0A0B7NKC0 from Parasitella parasitica, codon-optimized (protein, listed as Parasitella parasitica)
chain: MAVLCLVLERIYASYAVPPSYLRHYPKVSLFDMLKSFYIKESVASRNKRLIAPLTNAGHGFYVCRIPLNWTIYVTDPLAAKTLLLKSENFPKNKAIFTALGDSSPVIKFMGKENVAMSNGEEWKKQRKIMNPAFHRSQPVKTFGNVMPDLFALIDQDPERVFITPKMKSFALDALGLSAFGFDFQSLKGDPEGWTRKYNVVISTLFNPFVNIFASLDFLVKYISPERRRVIKATDEFNSMLGELADKRRQEILDGEKKNIPENEKDLLTLMIEADIRDNIKTTTTELRHNMAIFFLAGHDSTANTLSLCLYNLAKHKHVQKKARQEVLAILGDEPLDVIPTAEDLKKLDYVNMVIKENLRRNGPADNLMSRDTQQDMNLNGTIIPKGSKVSVNVAAIHLNPKIWHDPENFIPERFEQGGEFEQHDGFTWIPFSNGSRQCLGLNFSLTEQRVVLCMILKRYEIDIPKDSIHYNEIVFDGAFTFAPQSLELSFKRRY
B4: the Northebaine production result is recorded as “+”.

B5: CYPDN30: cytochrome P450 homolog A0A1X2H4N2 from Syncephalastrum racemosum, codon-optimized (protein, listed as Syncephalastrum racemosum)
chain: MNALLQRQDKMRDFLNTREGVYGITAAVAVVLISAYSLRRTVYTSRRKDEIATVPYKLPLKGSTEEYRADPRAFVEKYAKMYGPVYRAYLFGEMMTIVSDSYVREIFLNDNFNFFQAVKDRFDMVKLCNCANDEGHGIADIVKRCLNPRLDMYTERVNEQLEEASKEILTEVDTKGSQELMHMYILVQHMVARASATVFVGPELAKNSELIDSFKNMVIQVGSQLRPNPWLEPFPRLNSLRMWYIGKTSPVVRKHRLQLRSAVKPSIDDRLARQKSQGNAFQRPDDLLQDIIERHPEAKTKSDIYDYVVDTLTALIFAALHTTSENSTVVLYRLLQHPELMEELVAEQDAVLLEHGLPKDSSARVMTRQMIKKFEKLDSVCRESFRLRNDYLGLPHTYEGKKDIVLSNGAIIKPGEKAIINLWGNHHSGNTPQSTSQDYFGFDPYRFVKQDKQATKISEDFLFFGLGKHACPGRFFAVQEAKVLISVLLRNYKLSPVDPPYFATDDTMKIPAGRIRIERR
For B5, the Northebaine production result is given as “+”.

B6: CYPDN35: cytochrome P450 homolog A0A1X2GSL0 from Hesseltinella vesiculosa, codon-optimized (protein, listed as Hesseltinella vesiculosa)
chain: MLTQYLQFAADRLGQKKTLDQLQAVVTSKQGVVGITTAVALIALANHFRSPKIDRGCPQVEGKGWFGYATEEFRENPGKFLSEWHEKLGPVYGVKIFGHYATVVSGPYVREVFLDDRFSFIAAITKLFDPNLMTDSGHSSEQTAKNAADSIKRFLSPNLKHYTPRVIEHLNLGIEDWCGEVPAEGIEIENAFPFLQHLVARASASVFVGIELAKNEELVDSFQNMVSNISSGLKPKPWLEYFPSLTKLGMYMIGKTNPAVKRHRTQMANALRPEVDRRLKAMASNDTNWDRPDDMLQHILESYPAPEGLDVITYLINWMTQLIFAALHTTSENGKVVLYRLLQHPEVMEELYAEQNEVLAAAGYDESAGPEVFDREMLNKFVKLDSAVREACRLKNEFVGLPHENTTDKTLTLSNGAVILPGEFVYINQFVNHRDPELQAAIDDVHQFKPFRFVGTDHNAAKVSEGFVFFGMGRHACPGRWFAIQEIKTIVSLLLRKYKVEPIDPIVFSNQERDAFPIGPCRIRLTPRKAL
Regarding B6, the Northebaine production entry is “+”.

B7: CYPDN5: cytochrome P450 homolog A0A1X0RYU8 from Rhizopus microsporus, codon-optimized (protein, listed as Rhizopus microsporus)
chain: MELTEIAIETYHRALDKLVPILQKRSKRSYIGVAVALVVLERIYSFFRVPKSIRHIPAVPYFAMAKSFLTSEAPSSRHQRIVLPVIEKGNGIYVNKLPLEWTVNVATPTSAKHVLLKSEIYPKSESFLKLLGPQSPAVLFLGGKNVGFVNGDAWRKQRKIMNPAFHRSMPIQTMASVMPDFFSAIDKYGDEGIPISTIMRDFTLDVLGHTAFGFDFKALKGDPDNWTRTYHIINNALFNPTANMLTSLNPILSIISPERRRILEAIKKLNGMLEAMIKQKRQEVQSNAQAHAPENEKDLLTLMLEAQQRGEGLATDEELKHNVSGFFLAGHDTTSETLSFYFYNIAKNKDVQRKLREELNAVLGDKPVDVIPTLEQLKSMEYLNCTIKENLRLNGPADNVLPRVATEDMVVDGTPIPKGTVVNVDIHAIHHDTRYWKDPYKFVPERFLPGGEHDSHSGMTWLPFGNGARQCLGMNFSLAEQRLVIAMTVRKYDIEVPKDSIHYDHPILESSKTKAPASLKLIFRKRY
Turning to B7, the Northebaine production entry was “+”.

The values are drawn from patent US11781164B2, “Demethylation of reticuline and derivatives thereof with fungal cytochrome P450” (priority 2017, dated 2023).
